Results: paper PMC3985441 (Bioscience Reports, 2014)

Biological target: T1, p110αEE^E545K/p85α complex (E545K oncogenic mutant PI3Kα) (human, UniProt P42336 1-1068; P27986 1-724, E545K)
T1 construct: p110α catalytic subunit of Class 1A PI3K, human, full length, somatic cancer mutation E545K in the helical domain; p85α regulatory subunit of Class 1A PI3K, human, full length; 1:1 heterodimer; also called E545K mutant; p110α^E545K/p85α; not shown: EE tag (glu-tag, 6 amino acids), C-terminal, kept; copies: 1 + 1
Test: pull-down; GST fusion proteins (1 μg) on glutathione agarose, PI3Kα complexes (100–3200 ng) in solution; TBS with 10% (v/v) FBS, 1 h at 4°C; washes in TBS with 0.1% Tween 20; bound PI3Kα detected by immunoblot for p85α
Conditions: both partners purified

T1 sequence (P42336 whole entry E545K, chain 1 of 2, the tested form may be a part): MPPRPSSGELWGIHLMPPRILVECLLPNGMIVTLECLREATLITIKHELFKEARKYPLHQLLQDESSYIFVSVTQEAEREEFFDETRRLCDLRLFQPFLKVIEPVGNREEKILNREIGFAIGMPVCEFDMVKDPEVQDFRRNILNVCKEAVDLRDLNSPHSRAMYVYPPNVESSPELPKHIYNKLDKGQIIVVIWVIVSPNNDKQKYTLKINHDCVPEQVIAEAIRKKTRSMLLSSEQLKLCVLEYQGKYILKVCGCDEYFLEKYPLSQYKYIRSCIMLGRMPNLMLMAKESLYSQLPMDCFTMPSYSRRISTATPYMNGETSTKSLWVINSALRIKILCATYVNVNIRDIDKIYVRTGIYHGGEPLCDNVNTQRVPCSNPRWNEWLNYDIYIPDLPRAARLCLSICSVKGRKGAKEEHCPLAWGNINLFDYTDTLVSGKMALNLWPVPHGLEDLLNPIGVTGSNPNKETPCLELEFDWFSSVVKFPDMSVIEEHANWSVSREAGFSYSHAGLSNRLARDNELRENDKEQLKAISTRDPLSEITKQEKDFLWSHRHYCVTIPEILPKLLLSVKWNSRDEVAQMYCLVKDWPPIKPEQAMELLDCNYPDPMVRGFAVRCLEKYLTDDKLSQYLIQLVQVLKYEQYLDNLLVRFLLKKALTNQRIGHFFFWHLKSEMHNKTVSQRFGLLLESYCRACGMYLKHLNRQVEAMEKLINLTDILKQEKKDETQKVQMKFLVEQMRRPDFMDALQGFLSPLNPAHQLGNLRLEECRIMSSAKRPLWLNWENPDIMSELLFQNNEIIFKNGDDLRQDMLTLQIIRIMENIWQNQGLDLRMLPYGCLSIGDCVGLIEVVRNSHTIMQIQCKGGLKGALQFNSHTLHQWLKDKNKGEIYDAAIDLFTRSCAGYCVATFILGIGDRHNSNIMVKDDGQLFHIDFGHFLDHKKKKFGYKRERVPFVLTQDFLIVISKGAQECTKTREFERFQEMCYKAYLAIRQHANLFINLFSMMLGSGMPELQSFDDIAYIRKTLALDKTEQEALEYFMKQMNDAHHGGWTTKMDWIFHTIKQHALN
T1 sequence (P27986 whole entry, chain 2 of 2, the tested form may be a part): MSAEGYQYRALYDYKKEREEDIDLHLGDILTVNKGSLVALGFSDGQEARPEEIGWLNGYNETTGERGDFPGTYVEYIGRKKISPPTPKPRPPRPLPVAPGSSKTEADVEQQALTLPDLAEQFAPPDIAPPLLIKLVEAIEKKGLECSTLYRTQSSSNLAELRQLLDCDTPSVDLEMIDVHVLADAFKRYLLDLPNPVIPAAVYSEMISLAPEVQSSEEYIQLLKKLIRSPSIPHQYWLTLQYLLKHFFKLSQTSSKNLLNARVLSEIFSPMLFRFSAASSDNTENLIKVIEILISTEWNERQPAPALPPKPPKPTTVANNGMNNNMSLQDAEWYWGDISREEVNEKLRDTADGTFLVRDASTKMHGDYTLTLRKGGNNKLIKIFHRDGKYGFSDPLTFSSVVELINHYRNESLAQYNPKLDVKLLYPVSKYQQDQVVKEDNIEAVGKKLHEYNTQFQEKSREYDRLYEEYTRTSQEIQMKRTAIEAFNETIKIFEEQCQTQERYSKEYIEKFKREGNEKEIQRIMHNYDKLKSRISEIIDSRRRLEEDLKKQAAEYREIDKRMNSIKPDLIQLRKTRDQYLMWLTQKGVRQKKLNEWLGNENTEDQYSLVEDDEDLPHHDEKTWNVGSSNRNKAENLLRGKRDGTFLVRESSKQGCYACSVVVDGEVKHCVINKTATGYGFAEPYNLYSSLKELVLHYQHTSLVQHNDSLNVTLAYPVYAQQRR

B1: GST-V12 Cdc42 (constitutively active Cdc42Hs) (natural protein)
chain: not shown
notes: Cdc42Hs, human, constitutively active (V12) form; Plasmid courtesy of Professor Anne Ridley; also called GST-Cdc42; source: E. coli BL21 (DE3), purified (glutathione agarose)
binding result: binds
